Reference: patent publication US20260184782A1 (TWIST BIOSCIENCE, published 2026)

T1: recombinant human TIGIT (human, UniProt Q495A1 22-141, limits assumed)
T1 construct: recombinant human TIGIT used in Carterra SPR; also called hTIGIT
T1 sequence (looked up): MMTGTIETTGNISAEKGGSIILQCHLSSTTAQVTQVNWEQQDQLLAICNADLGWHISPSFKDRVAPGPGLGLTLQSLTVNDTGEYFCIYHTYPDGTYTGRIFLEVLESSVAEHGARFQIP


Molecular target: T1, recombinant human TIGIT
Assay: SPR Carterra, average
Method: Binding affinities of VHH-Fc proteins to recombinant human TIGIT were measured by SPR using a Carterra instrument (Table 10A). […] Average values reported from measurements from 1-2 samples.

Binder | Kd [nM] | koff [s⁻¹] | kon [M⁻¹ s⁻¹]
TIGIT-SC18 (Fc fusion, VHH-Fc fusion in assay) VHH: EVQLVESGGGLVQPGGSLRLSCAASGFSLDYYAMGWFRQAPGKEREVVAIIDTNGDNTLYADSVKGRFTISADNSKNTAYLQMNSLKPEDTAVYYCARGRGYGDYVGAYWGQGTLVTVSS | 16.3 | 0.00225 | 141000
TIGIT-SC208 (Fc fusion, VHH-Fc fusion in assay) VHH: EVQLVESGGGLVQPGGSLRLSCAASGFLFDSYVMGWFRQAPGKEREFVAAIWRSGTLKAYADSVKGRFTISADNSKNTEYLQMNSLKPEDTAVYYCARDDYGDTRRYFQHWGQGTLVTVSS | 851 | 0.196 | 231000
TIGIT-SC179 (Fc fusion, VHH-Fc fusion in assay) VHH: EVQLVESGGGLVQPGGSLRLSCAASGFTFSPSWMGWFRQAPGKEREWVASVLRGGYTWYADSVKGRFTISADNSKNTAYLQMNSLKPEDTAVYYCASEVASGETDYWGQGTLVTVSS | 51.1 | 0.00269 | 50400
TIGIT-SC163 (Fc fusion, VHH-Fc fusion in assay) VHH: EVQLVESGGGLVQPGGSLRLSCAASGFTFDRSWMGWFRQAPGKEREWVASVLRGGYTWYADSVKGRFTISADNSKNTAYLQMNSLKPEDTAVYYCATDKRGPHPDYWGQGTLVTVSS | 86.4 | 0.00269 | 38400
TIGIT-SC166 (Fc fusion, VHH-Fc fusion in assay) VHH: EVQLVESGGGLVQPGGSLRLSCAASGFTFDRSWMGWFRQAPGKEREWVASVLRGGYTWYADSVKGRFTISADNSKNTAYLQMNSLKPEDTAVYYCAREGSGYASDYWGQGTLVTVSS | 24.9 | 0.00147 | 58400
TIGIT-SC168 (Fc fusion, VHH-Fc fusion in assay) VHH: EVQLVESGGGLVQPGGSLRLSCAASGFTFDRSWMGWFRQAPGKEREWVASVLRGGYAWYADSVKGRFTISADNSKNTAYLQMSSLKPEDTAVYYCAREGSGYASDYWGQGTLVTVSS | 83.6 | 0.00254 | 30400
TIGIT-SC100 (Fc fusion, VHH-Fc fusion in assay) VHH: EVQLVESGGGLVQPGGSLRLSCAASGRTLSDRAMGWFRQAPGKEREFVAAITDNGGSTYYADSVKGRFTISADNSKNTAYLQMNSLKPEDTAVYYCARWYSSSGDYYYMDVWGQGTLVTVSS | 15.1 | 0.00183 | 122000
TIGIT-SC101 (Fc fusion, VHH-Fc fusion in assay) VHH: EVQLVESGGGLVQPGGSLRLSCAASGRTFSSYAMGWFRQAPGKEREFVAAIDWSDGSTYYADSVKGRFTISADNSKNTAYLQMNSLKPEDTAVYYCARWYSSSGDYYYMDVWGQGTLVTVSS | 73.4 | 0.00421 | 67800
TIGIT-SC104 (Fc fusion, VHH-Fc fusion in assay) VHH: EVQLVESGGGLVQPGGSLRLSCAASGFTFSTYTMGWFRQAPGKEREFVAAISPSGNTYYADSVKGRFTISADNSKNTAYLQMNSLKPEDTAVYYCARWGGITFGGVYPLDYWGQGTLVTVSS | 15.2 | 0.00375 | 247000
TIGIT-SC69 (Fc fusion, VHH-Fc fusion in assay) VHH: EVQLVESGGGLVQPGGSLRLSCAASGGTFNGRAMGWFRQAPGKEREFVAAISSIGDTYYADSVKGRFTISADNSKNTAYLQMNSLKPEDTAVYYCARWRLDRRQGFYYAMDVWGQGTLVTVSS | 12.6 | 0.00276 | 219000
TIGIT-SC212 (Fc fusion, VHH-Fc fusion in assay) VHH: EVQLVESGGGLVQPGGSLRLSCAASGFLFDSYAMGWFRQAPGKEREFVAAIWRSGTLKAYADSVKGRFTISADNSKNTAYLQMNSLKPEDTAVYYCARWVGASGDYWIDYWGQGTLVTVSS | 17.1 | 0.00126 | 74100
TIGIT-SC81 (Fc fusion, VHH-Fc fusion in assay) VHH: EVQLVESGGGLVQPGGSLRLSCAASGRSFKDDAMGWFRQAPGKEREFVAAISWSGDSTHYADSVKGRFTISADNSKNTAYLQMNSLKPEDTAVYYCARWVWASGTYWIDYWGQGTLVTVSS | 15.3 | 0.00233 | 169000
TIGIT-SC8 (Fc fusion, VHH-Fc fusion in assay) VHH: EVQLVESGGGLVQPGGSLRLSCAASGFAFSSYAMGWFRQAPGKEREFVARITWNGGSAYYADSVKGRFTISADNSKNTAYLQMNSLKPEDTAVYYCAAGATGWFDPWGQGTLVTVSS | 14.6 | 0.000753 | 156000
TIGIT-SC49 (Fc fusion, VHH-Fc fusion in assay) VHH: EVQLVESGGGLVQPGGSLRLSCAASGRTFIGYHMGWFRQAPGKEREFVAAISWTGESTLYADSVKGRFTISADNSKNTAYLQMNSLKPEDTAVYYCARDDYGDYRRYFQHWGQGTLVTVSS | 14.4 | 0.00102 | 129000

Further lines, results first:

Kd [nM] | koff [s⁻¹] | kon [M⁻¹ s⁻¹] | Binder
41.4 | 0.000625 | 15100 | TIGIT-SC209 (Fc fusion, VHH-Fc fusion in assay) VHH: EVQLVESGGGLVQPGGSLRLSCAASGFLFNSYWMGWFRQAPGKEREFVAAIWRSGTLKAYADSVKGRFTISADNSKNTEYLQMNSLKPEDTAVYYCARDDYGDYRIYFQHWGQGTLVTVSS
12.2 | 0.00371 | 528000 | TIGIT-SC207 (Fc fusion, VHH-Fc fusion in assay) VHH: EVQLVESGGGLVQPGGSLRLSCAASGFAFSSYVMGWFRQAPGKEREFVAAIWRSGTLKAYADSVKGRFTISADNSKNTEYLQMNSLKPEDTAVYYCARDDYGDTRRYFQHWGQGTLVTVSS
12.7 | 0.014 | 1.11e+06 | TIGIT-SC184 (Fc fusion, VHH-Fc fusion in assay) VHH: EVQLVESGGGLVQPGGSLRLSCAASGFTFSPSWMGWFRQAPGKEREWVASVLRGGYTWYADSVKGRFTISADNSKNTAYLQMNSLKPEDTAVYYCTTDRGYNWNYDWGQGTLVTVSS
296 | 0.0776 | 262000 | TIGIT-SC178 (Fc fusion, VHH-Fc fusion in assay) VHH: EVQLVESGGGLVQPGGSLRLSCAASGFTLSPSWMGWFRQAPGKEREWVASVLRGGYTWYADSVKGRFTISADNSKNTAYLQMNSLKPEDTAVYYCASEVASGETDYWGQGTLVTVSS
15.6 | 0.0157 | 1e+06 | TIGIT-SC206 (Fc fusion, VHH-Fc fusion in assay) VHH: EVQLVESGGGLVQPGGSLRLSCAASGFLFDSYVMGWFRQAPGKEREFVAAIWRSGTLKAYADSVKGRFTISADNSKNTAYLQMNGLKPEDTAVYYCAGVGTDYGDYLFNYWGQGTLVTVSS
36.4 | 0.00285 | 78400 | TIGIT-SC213 (Fc fusion, VHH-Fc fusion in assay) VHH: EVQLVESGGGLVQPGGSLRLSCAASGTFQRINAMGWFRQAPGKEREFVAAIWRSGTLKAYADSVKGRFTISADNSKNTAYLQMNSLKPEDTAVYYCARWVGASGDYWIDYWGQGTLVTVSS
13 | 8.53e-05 | 6540 | TIGIT-SC211 (Fc fusion, VHH-Fc fusion in assay) VHH: EVQLVESGGGLVQPGGSLRLSCAASGFSFSMYVMGWFRQAPGKEREFVAAIWRSGTLKAYADSVKGRFTISADNSKNTAYLQMNSLKPGDTAVYYCARDHRAMVAPFDYWGQGTLVTVSS
